This note sets out measurements from patent publication US20100226985A1, “VISCOELASTIC AQUEOUS GELS COMPRISING MICROSPHERES” (priority 2006, published 2010).

The data set in a line: Lysozyme release from viscoelastic gels into release buffer (BCA protein assay). It is filed as physicochemical. Conditions: after approximately one month; gel solid content 15 wt.-%, DS 4 and 8, lysozyme 1 wt.-% in buffer; release buffer Hepes pH 7. How it is done:
Viscoelastic gel compositions with a solid content of 15 wt.-% comprising lysozyme as a model active compound were prepared by dispersing equal amounts of dex-HEMA-L-lactate and dex-HEMA-D-lactate microspheres (DS 4 and 8) in lysozyme-containing (1 wt.-%) aqueus buffer solution. The microparticles were allowed to hydrate overnight at 4° C. Viscoelastic gels were formed which were then tested for lysozyme release using the method described by Van Tomme et al. JCR 2005; 110:67-78. In short, samples of 500 mg of the gels were transferred in a release device and 3 mL release buffer (Hepes, pH 7, 100 mM, 150 mM NaCl, 0.02% NaN3). At certain time intervals, samples were taken and analysed for their protein content using a BCA® protein assay. After approximately one month, about 80% of the entrapped lysozyme was released. No significant difference could be detected between the two batches (i.e. with DS 4 and DS 8) were observed.

Regarding lysozyme, the entrapped lysozyme released entry was “about 80%”.
